Test results published in patent US20150064134A1.

Columns and labels:
Assay in all cases: cell-based or functional assay
ASK1(h) (human) = ASK1(h) (human) (UniProt Q99683)
Axl(h) (human) = target: T1, Axl(h) (human) (UniProt P30530)
T1 sequence (looked up): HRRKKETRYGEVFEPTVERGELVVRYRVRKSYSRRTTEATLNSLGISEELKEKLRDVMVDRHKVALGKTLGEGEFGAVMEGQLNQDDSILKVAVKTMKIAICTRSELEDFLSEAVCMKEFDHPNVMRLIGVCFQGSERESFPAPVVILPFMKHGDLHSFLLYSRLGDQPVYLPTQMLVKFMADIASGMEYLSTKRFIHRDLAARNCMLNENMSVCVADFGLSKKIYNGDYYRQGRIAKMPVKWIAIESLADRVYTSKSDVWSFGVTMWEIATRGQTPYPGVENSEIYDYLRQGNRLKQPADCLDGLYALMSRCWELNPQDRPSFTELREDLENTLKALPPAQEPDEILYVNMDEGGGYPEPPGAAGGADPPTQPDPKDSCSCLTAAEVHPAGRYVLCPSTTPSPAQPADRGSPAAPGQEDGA

CDK5/p25(h) (human) = CDK5/p25(h) (human) (UniProt Q00535)
CHK2(h) (human) = CHK2(h) (human) (UniProt O96017)
Chain of CHK2(h) (human) (O96017 5-543 limits assumed): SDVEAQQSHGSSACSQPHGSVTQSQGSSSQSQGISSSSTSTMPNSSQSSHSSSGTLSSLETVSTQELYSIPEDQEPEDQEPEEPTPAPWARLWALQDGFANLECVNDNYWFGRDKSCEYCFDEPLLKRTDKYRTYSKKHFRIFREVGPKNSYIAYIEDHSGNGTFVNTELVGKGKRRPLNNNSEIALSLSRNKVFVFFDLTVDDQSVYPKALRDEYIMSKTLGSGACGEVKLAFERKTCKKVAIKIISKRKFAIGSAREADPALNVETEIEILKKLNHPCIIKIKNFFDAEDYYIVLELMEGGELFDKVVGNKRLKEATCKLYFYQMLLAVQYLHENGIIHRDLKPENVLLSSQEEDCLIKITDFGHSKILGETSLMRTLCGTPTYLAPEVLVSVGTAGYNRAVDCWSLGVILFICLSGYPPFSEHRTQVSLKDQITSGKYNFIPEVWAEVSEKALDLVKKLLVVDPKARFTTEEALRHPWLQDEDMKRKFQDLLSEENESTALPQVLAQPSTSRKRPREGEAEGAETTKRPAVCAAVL

EphA3(h) (human) = target: T2, EphA3(h) (human) (UniProt P29320)
T2 sequence (looked up): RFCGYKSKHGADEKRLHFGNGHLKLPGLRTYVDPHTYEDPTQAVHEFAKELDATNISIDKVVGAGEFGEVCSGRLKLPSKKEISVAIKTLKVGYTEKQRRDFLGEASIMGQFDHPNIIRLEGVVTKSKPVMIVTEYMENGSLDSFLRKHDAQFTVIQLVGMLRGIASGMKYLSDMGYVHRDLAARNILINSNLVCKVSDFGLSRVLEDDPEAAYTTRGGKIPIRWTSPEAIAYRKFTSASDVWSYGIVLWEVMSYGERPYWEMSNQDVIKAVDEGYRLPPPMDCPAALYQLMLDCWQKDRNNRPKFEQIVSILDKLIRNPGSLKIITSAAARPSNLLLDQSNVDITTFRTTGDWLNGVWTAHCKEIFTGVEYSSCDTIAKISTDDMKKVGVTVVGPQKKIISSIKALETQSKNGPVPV

FGFR1(h) (human) = FGFR1(h) (human) (UniProt P11362)
Chain of FGFR1(h) (human) (P11362 456-765 limits assumed): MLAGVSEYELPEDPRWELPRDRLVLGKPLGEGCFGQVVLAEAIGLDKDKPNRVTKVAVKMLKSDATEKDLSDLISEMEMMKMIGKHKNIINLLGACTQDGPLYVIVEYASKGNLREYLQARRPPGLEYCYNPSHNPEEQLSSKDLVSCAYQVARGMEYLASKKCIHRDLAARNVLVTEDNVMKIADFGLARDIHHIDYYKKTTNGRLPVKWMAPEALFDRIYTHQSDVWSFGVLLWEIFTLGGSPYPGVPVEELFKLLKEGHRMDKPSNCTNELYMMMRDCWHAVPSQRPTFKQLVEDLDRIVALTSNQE

GCK(h) (human) = target: T3, GCK(h) (human) (UniProt Q12851)
T3 sequence (looked up): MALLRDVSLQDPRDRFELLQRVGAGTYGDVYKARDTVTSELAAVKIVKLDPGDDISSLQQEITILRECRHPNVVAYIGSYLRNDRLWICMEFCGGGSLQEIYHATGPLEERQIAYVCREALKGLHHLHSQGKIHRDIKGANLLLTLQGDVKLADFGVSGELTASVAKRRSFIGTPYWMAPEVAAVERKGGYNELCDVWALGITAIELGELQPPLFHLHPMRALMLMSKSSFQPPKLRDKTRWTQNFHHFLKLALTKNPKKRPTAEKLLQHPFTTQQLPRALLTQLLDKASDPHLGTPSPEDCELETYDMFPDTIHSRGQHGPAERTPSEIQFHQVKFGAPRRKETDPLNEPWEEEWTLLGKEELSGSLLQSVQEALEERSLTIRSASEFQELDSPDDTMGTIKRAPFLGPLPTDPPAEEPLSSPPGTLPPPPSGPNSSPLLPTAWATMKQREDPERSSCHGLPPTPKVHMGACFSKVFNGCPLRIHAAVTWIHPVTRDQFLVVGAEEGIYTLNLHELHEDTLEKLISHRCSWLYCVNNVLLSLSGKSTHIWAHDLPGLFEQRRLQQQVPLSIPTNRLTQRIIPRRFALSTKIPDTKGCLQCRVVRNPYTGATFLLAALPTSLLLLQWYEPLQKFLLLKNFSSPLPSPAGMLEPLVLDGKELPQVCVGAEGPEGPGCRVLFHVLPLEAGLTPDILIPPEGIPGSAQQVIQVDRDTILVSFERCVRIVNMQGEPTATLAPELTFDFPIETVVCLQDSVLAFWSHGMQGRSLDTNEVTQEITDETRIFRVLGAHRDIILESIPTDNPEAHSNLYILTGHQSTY

HIPK2(h) (human) = HIPK2(h) (human) (UniProt Q9H2X6)
TSSK1(h) (human) = target: T4, TSSK1(h) (human) (UniProt Q9BXA7)
T4 sequence (looked up): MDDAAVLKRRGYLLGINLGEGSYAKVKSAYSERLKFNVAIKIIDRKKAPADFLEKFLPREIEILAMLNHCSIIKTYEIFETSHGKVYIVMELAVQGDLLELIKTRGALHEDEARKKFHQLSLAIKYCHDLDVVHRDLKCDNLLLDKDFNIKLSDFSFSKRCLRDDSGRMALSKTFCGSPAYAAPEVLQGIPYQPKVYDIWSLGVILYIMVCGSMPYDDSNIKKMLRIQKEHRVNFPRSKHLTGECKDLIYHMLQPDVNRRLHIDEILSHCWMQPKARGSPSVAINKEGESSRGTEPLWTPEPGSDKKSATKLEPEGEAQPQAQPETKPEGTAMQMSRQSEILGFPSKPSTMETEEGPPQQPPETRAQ

TrkB (h) (human) = TrkB (h) (human) (UniProt Q16620)
Txk(h) (human) = target: T5, Txk(h) (human) (UniProt P42681)
T5 sequence (looked up): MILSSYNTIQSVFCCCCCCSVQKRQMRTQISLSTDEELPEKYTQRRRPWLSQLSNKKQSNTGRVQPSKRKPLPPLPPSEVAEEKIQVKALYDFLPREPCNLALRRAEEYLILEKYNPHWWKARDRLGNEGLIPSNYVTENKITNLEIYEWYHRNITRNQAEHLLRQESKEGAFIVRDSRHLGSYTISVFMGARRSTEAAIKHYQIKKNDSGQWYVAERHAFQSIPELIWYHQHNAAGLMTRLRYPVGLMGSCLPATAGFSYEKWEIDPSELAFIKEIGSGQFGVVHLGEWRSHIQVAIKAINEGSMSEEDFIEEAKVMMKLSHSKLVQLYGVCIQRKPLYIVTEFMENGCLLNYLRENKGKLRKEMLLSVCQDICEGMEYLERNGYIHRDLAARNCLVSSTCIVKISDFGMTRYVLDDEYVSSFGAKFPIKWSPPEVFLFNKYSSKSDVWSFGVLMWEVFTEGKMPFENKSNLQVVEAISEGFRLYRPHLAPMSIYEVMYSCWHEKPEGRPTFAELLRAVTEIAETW

ZAP-70(h) (human) = ZAP-70(h) (human) (UniProt P43403)
Chain of ZAP-70(h) (human) (P43403 whole entry): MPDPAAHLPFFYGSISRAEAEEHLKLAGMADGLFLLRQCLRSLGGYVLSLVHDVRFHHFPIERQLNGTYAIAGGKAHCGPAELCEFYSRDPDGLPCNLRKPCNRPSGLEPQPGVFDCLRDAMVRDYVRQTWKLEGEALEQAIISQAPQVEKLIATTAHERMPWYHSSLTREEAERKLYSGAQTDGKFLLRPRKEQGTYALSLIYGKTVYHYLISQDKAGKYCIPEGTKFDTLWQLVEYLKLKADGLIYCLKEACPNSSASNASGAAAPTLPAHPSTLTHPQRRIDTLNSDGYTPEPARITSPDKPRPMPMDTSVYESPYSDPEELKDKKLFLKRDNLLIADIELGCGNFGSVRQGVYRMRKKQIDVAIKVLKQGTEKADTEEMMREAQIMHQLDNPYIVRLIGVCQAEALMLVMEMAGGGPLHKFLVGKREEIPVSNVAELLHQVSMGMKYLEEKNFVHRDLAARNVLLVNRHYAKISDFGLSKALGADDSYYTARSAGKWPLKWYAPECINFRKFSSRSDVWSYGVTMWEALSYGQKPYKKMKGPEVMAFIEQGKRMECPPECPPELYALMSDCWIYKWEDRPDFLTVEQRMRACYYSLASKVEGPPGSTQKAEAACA

mTOR(h) (human) = mTOR(h) (human) (UniProt P42345)
Chain of mTOR(h) (human) (P42345 1362-2549 limits assumed): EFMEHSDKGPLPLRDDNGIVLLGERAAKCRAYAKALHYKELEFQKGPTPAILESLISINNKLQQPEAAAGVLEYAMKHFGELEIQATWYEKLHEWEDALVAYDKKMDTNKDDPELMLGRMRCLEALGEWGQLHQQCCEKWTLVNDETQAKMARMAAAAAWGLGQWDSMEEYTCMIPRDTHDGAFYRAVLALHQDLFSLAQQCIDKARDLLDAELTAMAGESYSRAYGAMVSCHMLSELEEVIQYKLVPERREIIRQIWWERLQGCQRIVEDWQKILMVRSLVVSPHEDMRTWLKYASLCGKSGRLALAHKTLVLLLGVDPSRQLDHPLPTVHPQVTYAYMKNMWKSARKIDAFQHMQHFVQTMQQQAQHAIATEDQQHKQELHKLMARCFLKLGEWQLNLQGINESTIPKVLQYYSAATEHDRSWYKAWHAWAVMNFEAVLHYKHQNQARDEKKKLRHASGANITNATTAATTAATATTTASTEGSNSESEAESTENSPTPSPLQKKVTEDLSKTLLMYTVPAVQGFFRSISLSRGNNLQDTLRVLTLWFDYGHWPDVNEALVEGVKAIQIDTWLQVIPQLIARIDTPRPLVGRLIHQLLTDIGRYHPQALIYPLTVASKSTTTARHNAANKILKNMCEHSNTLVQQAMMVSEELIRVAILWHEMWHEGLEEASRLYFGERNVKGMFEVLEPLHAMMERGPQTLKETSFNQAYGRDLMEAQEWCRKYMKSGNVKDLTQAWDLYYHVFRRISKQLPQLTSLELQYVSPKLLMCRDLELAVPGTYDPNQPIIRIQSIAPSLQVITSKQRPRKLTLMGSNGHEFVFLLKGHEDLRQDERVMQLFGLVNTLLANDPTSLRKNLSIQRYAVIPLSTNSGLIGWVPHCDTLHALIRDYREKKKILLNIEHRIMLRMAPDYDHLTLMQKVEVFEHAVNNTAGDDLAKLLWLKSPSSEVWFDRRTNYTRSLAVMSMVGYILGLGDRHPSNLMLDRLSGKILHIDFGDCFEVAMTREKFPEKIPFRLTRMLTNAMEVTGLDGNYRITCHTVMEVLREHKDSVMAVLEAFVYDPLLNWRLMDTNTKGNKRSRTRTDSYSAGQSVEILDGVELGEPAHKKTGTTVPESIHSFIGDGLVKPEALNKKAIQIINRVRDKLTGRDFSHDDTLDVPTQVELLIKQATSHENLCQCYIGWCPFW

| Substance | % activity at 100 µM (ASK1(h) (human)) [%] | % activity at 100 µM (Axl(h) (human)) [%] | % activity at 100 µM (CDK5/p25(h) (human)) [%] | % activity at 100 µM (CHK2(h) (human)) [%] | % activity at 100 µM (EphA3(h) (human)) [%] | % activity at 100 µM (FGFR1(h) (human)) [%] | % activity at 100 µM (GCK(h) (human)) [%] | % activity at 100 µM (HIPK2(h) (human)) [%] | % activity at 100 µM (TSSK1(h) (human)) [%] | % activity at 100 µM (TrkB (h) (human)) [%] | % activity at 100 µM (Txk(h) (human)) [%] | % activity at 100 µM (ZAP-70(h) (human)) [%] | % activity at 100 µM (mTOR(h) (human)) [%] |
| --- | --- | --- | --- | --- | --- | --- | --- | --- | --- | --- | --- | --- | --- |
| MMI-0300 (peptide) | 80 | 52 | 89 | 66 | 6 | 55 | 70 | 73 | 79 | 5 | 48 | 75 | 91 |
| MMI-0400 (peptide) | 69 | 41 | 92 | 54 | 12 | 59 | 66 | 90 | 79 | 8 | 37 | 33 | 93 |
| MMI-0500 (peptide) | -4 | 12 | 66 | 13 | 33 | 18 | 30 | 38 | 46 | 12 | 10 | 1 | 135 |
